Measured values from patent publication US20240270821A1, “GIP/GLP1/GCG TRI-RECEPTOR AGONISTS AND USES THEREOF” (priority 2023, published 2024).
Starred links: 1 amine or outer side, 2 acyl side, 3 side chain; linkers in the order of their positions; H or OH if unused. Non-standard residues stand in square brackets, D forms with d. Groups on a side chain read outwards from the residue. No end group written: not given here. *: point of attachment. C18 diacid = O=C(O)CCCCCCCCCCCCCCCCC(=O)*; γGlu = O=C(O)[C@H](CCC(=O)[*:2])N[*:1]; αMeL = CC(C)C[C@](C)(N)C(=O)O; Dab = NCC[C@H](N)C(=O)O; AEEA = NCCOCCOCC(=O)O; Aib = CC(C)(N)C(=O)O

T1: human GIP receptor (human) (UniProt P48546)
T1 sequence (looked up): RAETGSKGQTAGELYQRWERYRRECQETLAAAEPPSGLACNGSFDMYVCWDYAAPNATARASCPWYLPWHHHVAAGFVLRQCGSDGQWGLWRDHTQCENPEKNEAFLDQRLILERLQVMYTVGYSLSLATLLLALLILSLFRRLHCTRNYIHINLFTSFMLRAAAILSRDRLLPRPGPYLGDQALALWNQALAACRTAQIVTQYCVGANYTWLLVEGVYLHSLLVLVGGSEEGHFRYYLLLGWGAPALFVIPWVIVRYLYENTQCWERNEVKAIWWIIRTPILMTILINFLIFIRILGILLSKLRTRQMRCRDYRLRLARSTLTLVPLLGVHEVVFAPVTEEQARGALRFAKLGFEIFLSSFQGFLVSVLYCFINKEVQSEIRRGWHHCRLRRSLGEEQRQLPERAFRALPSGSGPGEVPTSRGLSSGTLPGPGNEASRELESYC


Columns and labels:
Assay in all cases: cell-based or functional assay
hGLP-1R = hGLP-1R (Homo sapiens, UniProt P43220)
[1] = biological target: T1, human GIP receptor (human)
[2] = biological target: human glucagon receptor (human) (UniProt P47871)
Sequence of human glucagon receptor (human) (P47871 26-477): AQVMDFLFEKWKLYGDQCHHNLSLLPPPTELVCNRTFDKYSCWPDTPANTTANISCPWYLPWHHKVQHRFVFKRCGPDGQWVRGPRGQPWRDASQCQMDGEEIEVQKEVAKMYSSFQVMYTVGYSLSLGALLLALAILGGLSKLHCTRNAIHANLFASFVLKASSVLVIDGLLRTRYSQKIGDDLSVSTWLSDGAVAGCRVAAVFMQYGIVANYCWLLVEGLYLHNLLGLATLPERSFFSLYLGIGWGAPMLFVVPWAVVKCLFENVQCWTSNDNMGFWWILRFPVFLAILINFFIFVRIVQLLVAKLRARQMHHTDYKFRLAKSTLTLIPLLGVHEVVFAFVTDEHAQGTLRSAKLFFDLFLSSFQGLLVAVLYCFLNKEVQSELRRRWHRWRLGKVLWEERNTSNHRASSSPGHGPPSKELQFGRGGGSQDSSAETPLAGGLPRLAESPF

Sequence of hGLP-1R (P43220 24-463): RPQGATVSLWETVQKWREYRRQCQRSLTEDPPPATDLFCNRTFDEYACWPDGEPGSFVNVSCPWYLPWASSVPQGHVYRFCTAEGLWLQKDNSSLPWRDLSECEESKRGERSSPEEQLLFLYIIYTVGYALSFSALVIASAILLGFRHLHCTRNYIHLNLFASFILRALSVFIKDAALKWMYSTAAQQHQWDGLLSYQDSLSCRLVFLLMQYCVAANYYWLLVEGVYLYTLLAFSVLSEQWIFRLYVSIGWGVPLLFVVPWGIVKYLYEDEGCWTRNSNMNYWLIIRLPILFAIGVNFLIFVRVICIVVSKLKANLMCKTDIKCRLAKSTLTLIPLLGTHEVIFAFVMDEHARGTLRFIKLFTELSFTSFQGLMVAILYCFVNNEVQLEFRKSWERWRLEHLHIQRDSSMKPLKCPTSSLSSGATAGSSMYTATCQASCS

| Binder | Relative cAMP EC50 (hGLP-1R) | cAMP Rel EC50, nM (in the presence of 1% HSA) (hGLP-1R) | Relative cAMP EC50 [1] | cAMP Rel EC50, nM (in the presence of 1% HSA) [1] | Relative cAMP EC50 [2] | cAMP Rel EC50, nM (in the presence of 1% HSA) [2] | Relative cAMP EC50, nM (0.1% casein) (hGLP-1R) | cAMP Rel EC50, nM (1% HSA) (hGLP-1R) | Relative cAMP EC50, nM (0.1% casein) [1] | cAMP Rel EC50, nM (1% HSA) [1] | Relative cAMP EC50, nM (0.1% casein) [2] | cAMP Rel EC50, nM (1% HSA) [2] |
| --- | --- | --- | --- | --- | --- | --- | --- | --- | --- | --- | --- | --- |
| Y[Aib]QGTFTSDFS[Dab][αMeL]LDKK([AEEA-γGlu-C18 diacid])AQ[Aib]AFIEYLLE[Aib]GPSSGAPPPSGS-NH2 (ends and bridges not checked) [Example 133] | 3.6 nM | 1180 nM | 0.15 nM | 23.1 nM | 1.64 nM | 642 nM |  |  |  |  |  |  |
| YXQGTFTSDFSKXLDKKAQXAFIEYLLEGAPSSGAPPPSEG (synthetic construct; SITE 2: note = 2-Aminoisobutyric Acid; SITE 13: note = alpha-methyl-leucine; SITE 17: note = Lysine is chemically modified through conjugation of the epsilon-amino group of the Lysine side chain with (2-[2-(2-Amino-ethoxy)-ethoxy]-acetyl)-(gamma-Glu)-CO-(CH2) 18-CO2H; SITE 20: n) [Example 47] | 3.4 nM |  | 0.388 nM |  | 5.61 nM |  |  |  |  |  |  |  |
| YXQGTFTSDFSXXLDKKAQXAFIEWLLEGGHSSGEPPPSGE (synthetic construct; SITE 2: note = 2-Aminoisobutyric Acid; SITE 12: note = L-ornithine; SITE 13: note = alpha-methyl-leucine; SITE 17: note = Lysine is chemically modified through conjugation of the epsilon-amino group of the Lysine side chain with (2-[2-(2-Amino-ethoxy)-ethoxy]-acetyl)-(gamma-Glu)) [Example 124] | 6.14 nM | 801 nM | 0.344 nM | 54.7 nM | 2.92 nM | 567 nM |  |  |  |  |  |  |
| YXQGTFTSDFSXXLDKKAQXAFIEYLLEGGPSSGAPPPEGS (synthetic construct; SITE 2: note = 2-Aminoisobutyric Acid; SITE 12: note = L-ornithine; SITE 13: note = alpha-methyl-leucine; SITE 17: note = Lysine is chemically modified through conjugation of the epsilon-amino group of the Lysine side chain with (2-[2-(2-Amino-ethoxy)-ethoxy]-acetyl)-(gamma-Glu)) [Example 130] | 4.29 nM | 865 nM | 0.411 nM | 60.5 nM | 3.74 nM | 1080 nM |  |  |  |  |  |  |
| YXQGTFTSDFSXXLDKKAQXAFIEYLLAGGPSSGEPPPEGS (synthetic construct; SITE 2: note = 2-Aminoisobutyric Acid; SITE 12: note = L-ornithine; SITE 13: note = alpha-methyl-leucine; SITE 17: note = Lysine is chemically modified through conjugation of the epsilon-amino group of the Lysine side chain with (2-[2-(2-Amino-ethoxy)-ethoxy]-acetyl)-(gamma-Glu)) [Example 152] |  |  |  |  |  |  | 4.03 nM | 491 nM | 0.259 nM | 23.2 nM | 6.91 nM | 1090 nM |
| YXQGTFTSDFSKXLDKKAQXAFIEYLLEGGPSSGAPPPSGS (synthetic construct; SITE 2: note = 2-Aminoisobutyric Acid; SITE 13: note = alpha-methyl-leucine; SITE 17: note = Lysine is chemically modified through conjugation of the epsilon-amino group of the Lysine side chain with (2-[2-(2-Amino-ethoxy)-ethoxy]-acetyl)2-(gamma-Glu)-CO-(CH2 )16-CO2H; SITE 20:) [Example 142] | 4.37 nM | 391 nM | 0.216 nM | 14.1 nM | 3.49 nM | 1230 nM |  |  |  |  |  |  |
| YXQGTFTSDFSXXLDKKAQXAFIEYLLEAGPSSGEPPPSGE (synthetic construct; SITE 2: note = 2-Aminoisobutyric Acid; SITE 12: note = L-ornithine; SITE 13: note = alpha-methyl-leucine; SITE 17: note = Lysine is chemically modified through conjugation of the epsilon-amino group of the Lysine side chain with (2-[2-(2-Amino-ethoxy)-ethoxy]-acetyl)-(gamma-Glu)) [Example 135] | 3.3 nM | 472 nM | 0.246 nM | 23.4 nM | 2.53 nM | 557 nM |  |  |  |  |  |  |
| YXQGTFTSDFSXXLDKKAQXAFIEYLLEGGESSGAPPPSGS (synthetic construct; SITE 2: note = 2-Aminoisobutyric Acid; SITE 12: note = L-ornithine; SITE 13: note = alpha-methyl-leucine; SITE 17: note = Lysine is chemically modified through conjugation of the epsilon-amino group of the Lysine side chain with (2-[2-(2-Amino-ethoxy)-ethoxy]-acetyl)-(gamma-Glu)) [Example 145] | 4.26 nM | 1480 nM | 0.539 nM | 108 nM | 3.14 nM | 693 nM |  |  |  |  |  |  |
| YXQGTFTSDFSXXLDKKAQXAFIEYLLEGGPSSGEPPPSGS (synthetic construct; SITE 2: note = 2-Aminoisobutyric Acid; SITE 12: note = L-ornithine; SITE 13: note = alpha-methyl-leucine; SITE 17: note = Lysine is chemically modified through conjugation of the epsilon-amino group of the Lysine side chain with (2-[2-(2-Amino-ethoxy)-ethoxy]-acetyl)-(gamma-Glu)) [Example 131] | 5.51 nM | 984 nM | 0.416 nM | 91.8 nM | 2.64 nM | 976 nM |  |  |  |  |  |  |
| YXQGTFTSDFSQXLDKKAQXAFIEYLLEGGPSSGAPPPSGS (synthetic construct; SITE 2: note = 2-Aminoisobutyric Acid; SITE 13: note = alpha-methyl-leucine; SITE 17: note = Lysine is chemically modified through conjugation of the epsilon-amino group of the Lysine side chain with (2-[2-(2-Amino-ethoxy)-ethoxy]-acetyl)-(gamma-Glu)-CO-(CH2) 16-CO2H; SITE 20: n) [Example 150] |  |  |  |  |  |  | 2.63 nM | 463 nM | 0.346 nM | 50.6 nM | 5.37 nM | 1920 nM |
| YXQGTFTSDFSRXLDKKAQXAFIEYLLEGGPSSGAPPPSGS (synthetic construct; SITE 2: note = 2-Aminoisobutyric Acid; SITE 13: note = alpha-methyl-leucine; SITE 17: note = Lysine is chemically modified through conjugation of the epsilon-amino group of the Lysine side chain with (2-[2-(2-Amino-ethoxy)-ethoxy]-acetyl)2-(gamma-Glu)-CO-(CH2 )16-CO2H; SITE 20:) [Example 144] | 4.02 nM | 990 nM | 0.23 nM | 46.2 nM | 14.8 nM | 2600 nM |  |  |  |  |  |  |
| YXQGTFTSDFSRXLDKKAQXAFIEYLLEGGESSGAPPPSGS (synthetic construct; SITE 2: note = 2-Aminoisobutyric Acid; SITE 13: note = alpha-methyl-leucine; SITE 17: note = Lysine is chemically modified through conjugation of the epsilon-amino group of the Lysine side chain with (2-[2-(2-Amino-ethoxy)-ethoxy]-acetyl)2-(gamma-Glu)-CO-(CH2 )16-CO2H; SITE 20:) [Example 149] |  |  |  |  |  |  | 3.85 nM | 801 nM | 0.46 nM | 44.9 nM | 12.6 nM | 1420 nM |
| YXQGTFTSDFSXXLDKKAQXAFIEYLLEAGPSSGAPPPSGE (synthetic construct; SITE 2: note = 2-Aminoisobutyric Acid; SITE 12: note = L-ornithine; SITE 13: note = alpha-methyl-leucine; SITE 17: note = Lysine is chemically modified through conjugation of the epsilon-amino group of the Lysine side chain with (2-[2-(2-Amino-ethoxy)-ethoxy]-acetyl)2-(gamma-Glu)) [Example 128] | 3.5 nM | 679 nM | 0.307 nM | 24.3 nM | 6.76 nM | 1090 nM |  |  |  |  |  |  |
| YXQGTFTSDFSXXLDKKAQXAFIEWLLEGGHSSGEPPPEGS (synthetic construct; SITE 2: note = 2-Aminoisobutyric Acid; SITE 12: note = L-ornithine; SITE 13: note = alpha-methyl-leucine; SITE 17: note = Lysine is chemically modified through conjugation of the epsilon-amino group of the Lysine side chain with (2-[2-(2-Amino-ethoxy)-ethoxy]-acetyl)-(gamma-Glu)) [Example 127] | 4.8 nM | 1000 nM | 0.312 nM | 62.9 nM | 4.35 nM | 1010 nM |  |  |  |  |  |  |
| YXQGTFTSDFSKXLDKKAQXAFIEYLLEGGESSGAPPPSGS (synthetic construct; SITE 2: note = 2-Aminoisobutyric Acid; SITE 13: note = alpha-methyl-leucine; SITE 17: note = Lysine is chemically modified through conjugation of the epsilon-amino group of the Lysine side chain with (2-[2-(2-Amino-ethoxy)-ethoxy]-acetyl)2-(gamma-Glu)-CO-(CH2 )16-CO2H; SITE 20:) [Example 147] |  |  |  |  |  |  | 4.26 nM | 964 nM | 0.343 nM | 108 nM | 4.39 nM | 877 nM |
| YXQGTFTSDFSXXLDKKAQXAFIEYLLAGGPSSGEPPPSGS (synthetic construct; SITE 2: note = 2-Aminoisobutyric Acid; SITE 12: note = L-ornithine; SITE 13: note = alpha-methyl-leucine; SITE 17: note = Lysine is chemically modified through conjugation of the epsilon-amino group of the Lysine side chain with (2-[2-(2-Amino-ethoxy)-ethoxy]-acetyl)-(gamma-Glu)) [Example 153] |  |  |  |  |  |  | 7.09 nM | 488 nM | 0.218 nM | 16.8 nM | 14.7 nM | 1210 nM |
